Laboratory results from publication PMC1184076, “Modulation of p53 activity by IκBα: Evidence suggesting a common phylogeny between NF-κB and p53 transcription factors” (BMC Immunology, 2005).

Molecular target: T1, GST-p53, purified, bacterially produced (UniProt P04637 1-393)
T1 construct: p53 tumor suppressor protein; also called p53-pGEX; purified p53; source: bacteria, from a pGEX construct, purified
Assay: pull-down; purified GST-p53 (or GST-c-Jun) incubated with purified His-IκBα in IP buffer (25 mM Hepes pH 7.5, 75 mM KCl, 2.5 mM MgCl2, 0.1 mM EDTA, 0.15% NP-40, 1 mM DTT); glutathione Sepharose beads; autoradiography of 32P-IκBα or Western blot for IκBα
Details: both partners purified

T1 sequence (P04637 whole entry): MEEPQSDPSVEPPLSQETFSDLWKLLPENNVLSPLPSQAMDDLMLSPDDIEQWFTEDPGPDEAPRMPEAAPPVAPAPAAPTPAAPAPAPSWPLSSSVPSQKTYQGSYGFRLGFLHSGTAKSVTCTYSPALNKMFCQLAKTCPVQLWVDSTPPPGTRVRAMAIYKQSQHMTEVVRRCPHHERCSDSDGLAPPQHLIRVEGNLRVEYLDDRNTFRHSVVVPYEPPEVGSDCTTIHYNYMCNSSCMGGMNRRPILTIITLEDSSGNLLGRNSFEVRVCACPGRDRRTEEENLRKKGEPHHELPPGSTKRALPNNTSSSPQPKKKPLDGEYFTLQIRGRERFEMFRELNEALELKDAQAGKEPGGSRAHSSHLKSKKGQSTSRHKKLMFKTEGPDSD

Binder	binding result
[32P]-labeled 6xHis-tagged IκBα (His-IκBα), phosphorylated in vitro by p90rsk (natural protein, UniProt P25963 1-317, looked up, 32P-phosphate put on in vitro by p90rsk; site not stated, IκBα, wild type; also called [^32P]-labeled IκBα; purified bacterially-produced wild-type IκBα; source: bacterially produced, purified; labeled in vitro with [γ-32P]ATP and Xenopus laevis p90rsk) MFQAAERPQEWAMEGPRDGLKKERLLDDRHDSGLDSMKDEEYEQMVKELQEIRLEPQEVPRGSEPWKQQLTEDGDSFLHLAIIHEEKALTMEVIRQVKGDLAFLNFQNNLQQTPLHLAVITNQPEIAEALLGAGCDPELRDFRGNTPLHLACEQGCLASVGVLTQSCTTPHLHSILKATNYNGHTCLHLASIHGYLGIVELLVSLGADVNAQEPCNGRTALHLAVDLQNPDLVSLLLKCGADVNRVTYQGYSPYQLTWGRPSTRIQQQLGQLTLENLQMLPESEDEESYDTESEFTEFTEDELPYDDCVFGGQRLTL	binds
6xHis-tagged IκBα (His-IκBα), purified, bacterially produced (natural protein, UniProt P25963 1-317, looked up, IκBα, wild type; also called purified IκBα protein; hexahistidine-tagged IκBα; source: bacterially produced, purified) MFQAAERPQEWAMEGPRDGLKKERLLDDRHDSGLDSMKDEEYEQMVKELQEIRLEPQEVPRGSEPWKQQLTEDGDSFLHLAIIHEEKALTMEVIRQVKGDLAFLNFQNNLQQTPLHLAVITNQPEIAEALLGAGCDPELRDFRGNTPLHLACEQGCLASVGVLTQSCTTPHLHSILKATNYNGHTCLHLASIHGYLGIVELLVSLGADVNAQEPCNGRTALHLAVDLQNPDLVSLLLKCGADVNRVTYQGYSPYQLTWGRPSTRIQQQLGQLTLENLQMLPESEDEESYDTESEFTEFTEDELPYDDCVFGGQRLTL	binds
